This note sets out measurements from PMC5825162.

In assay [1] the target is KSHV gH/gL glycoprotein complex (gH-V5/gL-Flag), wild type (Kaposi's sarcoma-associated herpesvirus (KSHV)) (UniProt F5HAK9).
For assay [2], the target named is RRV gH/gL glycoprotein complex (gH-V5/gL-Flag), wild type (rhesus monkey rhadinovirus (RRV)).

Sequence of UniProt F5HAK9 (F5HAK9 whole entry, looked up, one chain of several): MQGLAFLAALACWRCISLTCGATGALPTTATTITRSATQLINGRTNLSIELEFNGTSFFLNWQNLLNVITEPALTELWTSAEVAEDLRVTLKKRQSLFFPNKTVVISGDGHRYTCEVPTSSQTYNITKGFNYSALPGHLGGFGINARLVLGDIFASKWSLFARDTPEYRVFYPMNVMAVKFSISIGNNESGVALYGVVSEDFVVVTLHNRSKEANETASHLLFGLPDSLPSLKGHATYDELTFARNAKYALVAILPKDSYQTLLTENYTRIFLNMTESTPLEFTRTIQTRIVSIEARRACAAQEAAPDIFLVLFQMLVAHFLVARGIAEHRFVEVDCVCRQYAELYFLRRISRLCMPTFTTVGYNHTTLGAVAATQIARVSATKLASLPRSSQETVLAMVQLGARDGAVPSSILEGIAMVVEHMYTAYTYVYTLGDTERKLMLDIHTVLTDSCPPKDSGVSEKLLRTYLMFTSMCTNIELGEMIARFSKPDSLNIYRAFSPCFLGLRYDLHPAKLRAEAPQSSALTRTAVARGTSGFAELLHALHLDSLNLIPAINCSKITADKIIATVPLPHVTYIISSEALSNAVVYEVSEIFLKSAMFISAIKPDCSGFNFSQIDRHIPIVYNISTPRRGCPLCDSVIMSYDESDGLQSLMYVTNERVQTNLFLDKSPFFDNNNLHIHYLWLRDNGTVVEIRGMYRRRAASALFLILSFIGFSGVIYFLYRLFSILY

On to “soluble EphA2-Fc fusion construct comprising amino acids 25–534 of human EphA2 (from UniProt P29317-1 25-534)”, for which the inhibition of KSHV wt infection of SLK cells (GFP, flow cytometry) after pre-incubation of the virus with soluble EphA2-Fc, dose series; gH/gL on virions in assay [1] turned out to be 90%.

B1: Recombinant, human, soluble EphB3-Fc (Fc fusion)
chain: GCRALEETLMDTKWVTSELAWTSHPESGWEEVSGYDEAMNPIRTYQVCNVRESSQNNWLRTGFIWRRDVQRVYVELKFTVRDCNSIPNIPGSCKETFNLFYYEADSDVASASSPFWMENPYVKVDTIAPDESFSRLDAGRVNTKVRSFGPLSKAGFYLAFQDQGACMSLISVRAFYKKCASTTAGFALFPETLTGAEPTSLVIAPGTCIPNAVEVSVPLKLYCNGDGEWMVPVGACTCATGHEPAAKESQCRPCPPGSYKAKQGEGPCLPCPPNSRTTSPAASICTCHNNFYRADSDSADSACTTVPSPPRGVISNVNETSLILEWSEPRDLGGRDDLLYNVICKKCHGAGGASACSRCDDNVEFVPRQLGLTERRVHISHLLAHTRYTFEVQAVNGVSGKSPLPPRYAAVNITTNQAAPSEVPTLRLHSSSGSSLTLSWAPPERPNGVILDYEMKYFEKSEGIASTVTSQMNSVQLDGLRPDARYVVQVRARTVAGYGQYSRPAEFETTSERGSGAQQLQEQLPL
For the molecule B1, the inhibition of RRV 26–95 wt infection of SLK cells (YFP, flow cytometry) after pre-incubation of the virus with soluble EphB3-Fc, dose series; gH/gL on virions in assay [2] was found to be 80%.
